Numbering of substitutions follows the chain as printed.

Test [1] concerns the target T1, cynoSIRPα (EGM_02252), Extracellular Domain + His-Tag (cynomolgus monkey).
T1 construct: also called CySIRPα EGM_02252; not shown: His-Tag
T1 chain: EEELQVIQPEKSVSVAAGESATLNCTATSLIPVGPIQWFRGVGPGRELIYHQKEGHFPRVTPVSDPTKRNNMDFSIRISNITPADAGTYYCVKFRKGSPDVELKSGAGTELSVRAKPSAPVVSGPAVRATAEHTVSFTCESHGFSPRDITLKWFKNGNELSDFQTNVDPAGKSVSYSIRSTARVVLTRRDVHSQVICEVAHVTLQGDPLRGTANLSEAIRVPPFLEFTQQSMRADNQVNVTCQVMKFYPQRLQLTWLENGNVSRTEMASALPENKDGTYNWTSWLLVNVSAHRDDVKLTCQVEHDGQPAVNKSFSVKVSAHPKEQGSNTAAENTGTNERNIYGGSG
As to the kind of experiment: SPR, antibody captured on Protein A/G, ECD-His analyte. As to the method:
(§1) The binding kinetics of anti-SIRPα antibodies to various SIRPα analytes are determined by surface plasmon resonance (SPR) using a Biacore 8K+(Cytiva). 1×HBS-EP+(Cytiva) is used as running buffer and for all the dilutions unless stated otherwise. The Series S CM5 sensorchip is activated with a 1:1 mixture of 0.1 M NHS (N-hydroxysuccinimide) and 0.4 M EDC (1-Ethyl-3-(3-dimethylaminopropyl) carbodiimide hydrochloride) for 420 seconds at a flow rate of 10 μl/min and immobilized with Protein A/G (Thermo Scientific, 10 μg/ml in 10 mM acetate pH 4.5) for 420 seconds at a flowrate of 10 μl/min resulting in approximately 3000 RU of Protein A/G on the surface. The sensorchip is then deactivated with 1 M ethanolamine HCl pH 8.5 for 420 seconds at a flowrate of 10 μl/min.
(§2) Antibodies (approximately 1 ug/ml) are captured on the Protein A/G surface for 60 seconds at a flowrate of 10 μl/min resulting in capture levels of approximately 240 RU. Dilutions of each SIRP protein (Extracellular Domain+His-Tag, with the concentrations as indicated) are injected as analytes over the captured antibody for 300 seconds of association at a flowrate of 30 μl/min, followed by a dissociation for 600 seconds.
A general note: SPR reads the build-up and loss of mass on a sensor chip optically.

For test [2], the target named is T2, cynoSIRPα (XP_015313155), Extracellular Domain + His-Tag (cynomolgus monkey).
T2 construct: also called CySIRPα XP_015313155; not shown: His-Tag
T2 chain: T1 chain with E19D, A27V, T28S, V42A, H51N, Q52L, F227V, M245T
Briefly: SPR, antibody captured on Protein A/G, ECD-His analyte, 1:1 fit. An outline of the steps: (§3)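 Biacore 8K+ at HBS-EP+, with antibodies (~1 ug/ml) captured on Protein A/G CM5 surface to ~240 RU. SIRPα ECD-His analyte dilutions injected at 30 μl/min for 300 s association, 600 s dissociation.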

The target of test [3] is T3, cynoSIRPα (NP_001271679), Extracellular Domain + His-Tag (cynomolgus monkey).
T3 construct: also called CySIRPα NP_001271679; not shown: His-Tag
T3 chain: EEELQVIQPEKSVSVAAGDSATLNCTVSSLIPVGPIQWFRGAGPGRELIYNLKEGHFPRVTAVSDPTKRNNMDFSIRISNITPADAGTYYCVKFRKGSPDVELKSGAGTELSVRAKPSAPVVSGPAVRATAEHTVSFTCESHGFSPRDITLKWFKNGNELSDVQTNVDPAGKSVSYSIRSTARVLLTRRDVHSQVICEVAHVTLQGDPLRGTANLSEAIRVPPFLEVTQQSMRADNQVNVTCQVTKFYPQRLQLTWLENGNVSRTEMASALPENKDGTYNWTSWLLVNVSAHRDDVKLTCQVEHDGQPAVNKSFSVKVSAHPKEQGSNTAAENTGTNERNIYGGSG
The description is as above. An outline of the steps: as §3

Test [4] deals with T4, Human SIRPαV2 (CAA71403.1), Extracellular Domain + His-Tag (human, UniProt P78324 31-373).
T4 construct: also called huSIRPαV2; hSIRPαV2; not shown: His-Tag
The description is as above. An outline of the steps: as §3

In test [5] the target is T5, Human SIRPαV1 (NP_542970.1), Extracellular Domain + His-Tag (human, UniProt P78324 31-373).
T5 construct: also called huSIRPαV1; hSIRPαV1; not shown: His-Tag
The test is described as above. The method, boiled down:
as §3

For test [6], the target named is T2, cynoSIRPα (XP_015313155), Extracellular …. As to the kind of experiment: SPR, antibody captured on Protein A/G, ECD-His analyte, steady-state fit. As to the method: as §1, §2
(§4) The above procedures are used to measure binding properties of antibodies of the present disclosure. For each analyte used, the highest concentration was as indicated in Example 3 (see Table 36).

Test [7] addresses T1, cynoSIRPα (EGM_02252), Extracellular …. Described as above. As to the method:
as §1, §2, §4

T5 sequence (P78324 other isoform, or with tags, fused parts or gaps): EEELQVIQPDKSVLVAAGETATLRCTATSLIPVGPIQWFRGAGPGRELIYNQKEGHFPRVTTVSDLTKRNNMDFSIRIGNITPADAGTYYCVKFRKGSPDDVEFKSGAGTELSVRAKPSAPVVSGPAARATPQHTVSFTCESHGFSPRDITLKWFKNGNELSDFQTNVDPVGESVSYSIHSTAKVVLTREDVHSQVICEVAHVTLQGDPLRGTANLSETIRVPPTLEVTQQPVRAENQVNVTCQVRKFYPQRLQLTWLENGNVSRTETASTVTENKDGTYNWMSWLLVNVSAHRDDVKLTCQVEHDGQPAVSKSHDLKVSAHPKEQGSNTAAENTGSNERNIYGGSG
T4 sequence (P78324 other isoform, or with tags, fused parts or gaps): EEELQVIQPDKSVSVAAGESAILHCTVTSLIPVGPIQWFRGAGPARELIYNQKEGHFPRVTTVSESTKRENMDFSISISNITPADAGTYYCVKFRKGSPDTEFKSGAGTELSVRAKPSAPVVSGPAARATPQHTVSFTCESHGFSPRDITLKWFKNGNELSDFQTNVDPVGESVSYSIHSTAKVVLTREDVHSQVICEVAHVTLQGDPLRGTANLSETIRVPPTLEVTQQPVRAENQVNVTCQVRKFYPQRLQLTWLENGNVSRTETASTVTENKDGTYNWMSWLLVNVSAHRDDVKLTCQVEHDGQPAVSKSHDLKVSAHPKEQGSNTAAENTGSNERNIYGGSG

B1: Antibody E17 (antibody, human IgG1, kappa, L234A L235A, V domains shown)
VH: QVQLQESGPGLVRPSETLSLTCTVSGGSIRNYYWSWIRQPPGKGLEWMGFIYDNGRTFYNPSLKSRVTISLDMSMNQFSLKMTSVTAADTAVYYCARVRAYSGIGLDGTDVWGQGTTVTVSS
VL: DIVMTQSPLSLPVTPGEPASISCKSSQSLLYSNAYNYLDWYLQRPGQSPQLLIYLGSNRASGVPDRFSGSGSGTDFTLKISRVEAEDVGVYYCMQALQTPLTFGGGTKVEIKR
In the case of B1, the binding result in test [1] is “no binding (tested: 1000 nM)”. For the same molecule, the Kd (usually the constant that tells how readily two partners part at equilibrium) in test [2] turned out to be 43.2 nM; in test [3], 44.8 nM; in test [4], 0.8 nM; in test [5], 2.36 nM. Besides, the koff (usually the rate constant with which the complex falls apart) in test [2] is 0.0126 s⁻¹; in test [3], 0.0126 s⁻¹; in test [4], 0.000405 s⁻¹; in test [5], 0.000955 s⁻¹. The kon (as a rule, a measure of how fast the partners come together) in test [2] was found to be 292000 M⁻¹ s⁻¹; in test [3], 282000 M⁻¹ s⁻¹; in test [4], 508000 M⁻¹ s⁻¹; in test [5] it was 405000 M⁻¹ s⁻¹.

B2: Antibody E19 (antibody, human IgG1, kappa, L234A L235A, V domains shown)
VH: B1 VH with M48I, D53Y, N54T, M75K
VL: B1 VL with A34G, N36A, L55Q, Y91F
Regarding B2, in test [1], the binding result is reported as “no binding (tested: 1000 nM)”. The Kd came to 44.7 nM in test [2], 46.6 nM in test [3], 0.97 nM in test [4] and 2.52 nM in test [5]. Besides, the koff in test [2] was determined as 0.00687 s⁻¹; in test [3], 0.00725 s⁻¹; in test [4], 0.000399 s⁻¹; in test [5], 0.000843 s⁻¹. Further, the kon in test [2] was found to be 154000 M⁻¹ s⁻¹; in test [3], 156000 M⁻¹ s⁻¹; in test [4], 411000 M⁻¹ s⁻¹; in test [5], 334000 M⁻¹ s⁻¹.

B3: Antibody E18 (antibody, human IgG1, kappa, L234A L235A, V domains shown)
VH: B1 VH with M48I, D53Y, N54T, M75K
VL: B1 VL with A34G, N36A
Regarding B3, the binding result in test [1] is listed as “no binding (tested: 1000 nM)”. Also, the Kd in test [2] worked out at 50 nM; in test [3], 52.5 nM; in test [4], 0.9 nM; in test [5] it was 2.46 nM. Moreover, the koff in test [2] turned out to be 0.0113 s⁻¹; in test [3] it was 0.0118 s⁻¹; in test [4] it was 0.000443 s⁻¹; in test [5], 0.00101 s⁻¹. In addition, the kon amounted to 226000 M⁻¹ s⁻¹ in test [2], 224000 M⁻¹ s⁻¹ in test [3], 493000 M⁻¹ s⁻¹ in test [4] and 410000 M⁻¹ s⁻¹ in test [5].

B4: Antibody E21 (antibody, human IgG1, kappa, L234A L235A, V domains shown)
VH: B1 VH with M48I, D53Y, N54T, M75K
VL: B1 VL
Turning to B4, the binding result in test [1] is “no binding (tested: 1000 nM)”. Moreover, the Kd in test [2] was found to be 108 nM; in test [3], 107 nM; in test [4], 1.39 nM; in test [5], 4.46 nM. In addition, the koff in test [2] was 0.0245 s⁻¹; in test [3] it was 0.0242 s⁻¹; in test [4] it was 0.000761 s⁻¹; in test [5], 0.00212 s⁻¹. For the same molecule, the kon was determined as 228000 M⁻¹ s⁻¹ in test [2], 225000 M⁻¹ s⁻¹ in test [3], 549000 M⁻¹ s⁻¹ in test [4] and 476000 M⁻¹ s⁻¹ in test [5].

B5: Antibody E20 (antibody, human IgG1, kappa, L234A L235A, V domains shown)
VH: B1 VH with M48I, D53Y, N54T, M75I
VL: B1 VL
For the molecule B5, in test [1], the binding result is listed as “no binding (tested: 1000 nM)”. Further, the Kd in test [2] came out at 104 nM; in test [3], 111 nM; in test [4], 1.11 nM; in test [5], 3.42 nM. Also, the koff in test [2] is 0.0261 s⁻¹; in test [3], 0.0278 s⁻¹; in test [4], 0.000627 s⁻¹; in test [5], 0.00164 s⁻¹. In addition, the kon in test [2] is 251000 M⁻¹ s⁻¹; in test [3], 251000 M⁻¹ s⁻¹; in test [4] it was 563000 M⁻¹ s⁻¹; in test [5], 480000 M⁻¹ s⁻¹.

B6: Antibody A (antibody, human IgG1, kappa, L234A L235A)
heavy: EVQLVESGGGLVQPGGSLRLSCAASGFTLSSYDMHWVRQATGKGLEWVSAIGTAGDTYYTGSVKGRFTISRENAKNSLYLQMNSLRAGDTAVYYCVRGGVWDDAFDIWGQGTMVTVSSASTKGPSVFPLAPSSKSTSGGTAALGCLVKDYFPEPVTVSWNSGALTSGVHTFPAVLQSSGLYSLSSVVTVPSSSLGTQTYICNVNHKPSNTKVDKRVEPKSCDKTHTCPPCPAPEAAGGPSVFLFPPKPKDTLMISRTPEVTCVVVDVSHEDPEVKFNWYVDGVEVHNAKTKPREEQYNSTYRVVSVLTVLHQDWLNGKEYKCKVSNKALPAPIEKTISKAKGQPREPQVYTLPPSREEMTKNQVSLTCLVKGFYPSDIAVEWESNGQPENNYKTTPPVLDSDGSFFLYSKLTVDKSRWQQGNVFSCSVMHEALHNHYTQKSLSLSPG
light: DIQMTQSPSSLSASVGDRVTITCRASQDINNYLAWFQQKPGKAPKSLIYTASSLHSGVPSKFSGSGSGTDFTLTISSLQPEDFATYYCQQYVSYPYTFGQGTKLEIKRTVAAPSVFIFPPSDEQLKSGTASVVCLLNNFYPREAKVQWKVDNALQSGNSQESVTEQDSKDSTYSLSSTLTLSKADYEKHKVYACEVTHQGLSSPVTKSFNRGEC
Turning to B6, the Kd in test [6] stood at 165 nM. Moreover, the Kd in test [7] was determined as 258 nM. In test [3], the Kd worked out at 158 nM, the koff worked out at 0.138 s⁻¹ and the kon was found to be 873000 M⁻¹ s⁻¹.

The values are drawn from US20230012273A1 (Boehringer Ingelheim, published 2023).
